Tests used:
Test in all cases: cell-based or functional assay
[1] = target: SARS-CoV-2 "Epsilon" B.1.427/9 full-length Spike protein on pseudovirus (SARS-CoV-2) (UniProt P0DTC2)
[2] = target: SARS-CoV-2 "Alpha" UK B.1.1.7 full-length Spike protein on pseudovirus (SARS-CoV-2) (UniProt P0DTC2)
[3] = target: SARS-CoV-2 "Delta" B.1.617.2 full-length Spike protein on pseudovirus (SARS-CoV-2) (UniProt P0DTC2)
[4] = target: SARS-CoV-2 "Gamma" Brazil P.1.B.1.1.28 full-length Spike protein on pseudovirus (SARS-CoV-2) (UniProt P0DTC2)
[5] = target: SARS-CoV-2 "Beta" SA B.1.351 full-length Spike protein on pseudovirus (SARS-CoV-2) (UniProt P0DTC2)
[6] = target: SARS-CoV-2 "Delta-plus" B.1.617.2.1 full-length Spike protein on pseudovirus (SARS-CoV-2) (UniProt P0DTC2)

Substance	Pseudovirus Neturalization [1] [µg/mL]	Pseudovirus Neturalization [2] [µg/mL]	Pseudovirus Neturalization [3] [µg/mL]	Pseudovirus Neturalization [4] [µg/mL]	Pseudovirus Neturalization [5] [µg/mL]	Pseudovirus Neturalization [6] [µg/mL]
Anti-Nucleocapsid (Neg Control) (antibody)	> 50	> 50	> 50	> 50	> 50	> 50
CA-1 (AB-009265) (antibody)	0.33	0.209	2.19	> 50	> 50	41.5
CB-6 (AB-009264) (antibody)	0.009	0.417	0.004	> 50	> 50	> 50
COVA1-21 (AB-010159) (antibody)	> 50	> 50	> 50	> 50	> 50	> 50
CR3022 (AB-009073) (antibody)	> 50	> 50	> 50	> 50	> 50	> 50
LY-CoV555 | Bamlanivimab (AB-010160) (antibody)	7.82	0.0012	19.3	> 50	> 50	6.93
REGN10933 | Casirivimab (AB-010156) (antibody)	0.001		0.001	0.666	1.09	0.001
REGN10987 | Imdevimab (AB-010157) (antibody)	0.001		0.001			0.001
